Values joined by “and” are separate entries in the source; they are usually repeats but may differ in a detail not shown here. Equal entries are not always repeated.

The target of this assay is C-C Chemokine Receptor 5 (CC-CKR5) (human) (UniProt P51681). Put plainly: cell-based or functional assay.
Regarding “ADA Env (macrophage-tropic HIV-1 envelope glycoprotein)”, the sensitivity of 293T cells co-expressing CD4 and CC-CKR-5 to infection by pseudotyped luciferase reporter virus (orders of magnitude) was 3 and 4.

In the case of “BaL Env (macrophage-tropic HIV-1 envelope glycoprotein)”, the sensitivity of 293T cells co-expressing CD4 and CC-CKR-5 to infection by pseudotyped luciferase reporter virus (orders of magnitude) was 3 and 4. In the case of “JRFL Env (macrophage-tropic HIV-1 envelope glycoprotein)”, the sensitivity of 293T cells co-expressing CD4 and CC-CKR-5 to infection by pseudotyped luciferase reporter virus (orders of magnitude) is 3 and 4. With “MIP-1α (from UniProt P10147 23-92) (ligand)”, the reduction of infection of HeLa cells expressing CD4 and CC-CKR-5 by macrophage-tropic virus; mixture of chemokines was 80% and 70%. Turning to “MIP-1β (from UniProt P13236 24-92) (ligand)”, the reduction of infection of HeLa cells expressing CD4 and CC-CKR-5 by macrophage-tropic virus; mixture of chemokines was 70% and 80%. As for “RANTES (from UniProt P13501 24-91) (ligand)”, the reduction of infection of HeLa cells expressing CD4 and CC-CKR-5 by macrophage-tropic virus; mixture of chemokines is 70% and 80%.

The values are drawn from patent US7129055.
